In series [1] the test system is HeLa Kyoto. Kind of series: solubility in G1/S (NP-40 vs SDS abundance) (log2 ratio); higher = more soluble. The conditions noted are these: cell cycle stage: G1/S.
Series [2] relates to HeLa Kyoto. Kind of series: melting temperature (median over replicates), in situ; higher = more thermally stable.
For series [3], the system named is HeLa Kyoto. Kind of series: solubility change mitosis vs G1/S (difference of NP-40 vs SDS log2 ratios) (log2 ratio difference); higher = more soluble in mitosis.
For series [4], the system named is HeLa Kyoto. Kind of series: thermal stability score vs G1/S (z-score of summed log2 fold changes over temperatures); higher = more thermally stable than in G1/S.
Setting [5] is: cell cycle stage: early G1 (4.5 h after nocodazole release).
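Wherever melting temperature (median over replicates), in situ is given: HeLa Kyoto cells synchronized by double thymidine or nocodazole block, proteins quantified by TMT10plex mass spectrometry, three independent biological replicates.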
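Wherever solubility change mitosis vs G1/S (difference of NP-40 vs SDS log2 ratios) is given: synchronized HeLa Kyoto cells (double thymidine block for G1/S, nocodazole release for mitosis), protein amounts in NP-40 versus SDS lysates quantified by mass spectrometry, three biological replicates.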
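Wherever solubility in G1/S (NP-40 vs SDS abundance) is given: HeLa Kyoto cells arrested at G1/S by double thymidine block, proteins quantified by TMT10plex mass spectrometry in mild NP-40 versus SDS extracts, three biological replicates.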
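Wherever thermal stability score vs G1/S (z-score of summed log2 fold changes over temperatures) is given: synchronized HeLa Kyoto cells, proteins quantified by TMT10plex mass spectrometry, three biological replicates, mitosis taken 0.5 h after nocodazole release, G1/S directly after double thymidine block.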

In the case of “MAAVAGSGAAAAPSSLLLVVGSEFGSPGLLTYVLEELERGIRSWDVDPGVCNLDEQLKVFVSRHSATFSSIVKGQRSLHHRGDNLETLVLLNPSDKSLYDELRNLLLDPASHKLLVLAGPCLEETGELLLQTGGFSPHHFLQVLKDREIRDILATTPPPVQPPILTITCPTFGDWAQLAPAVPGLQGALRLQLRLNPPAQLPNSEGLCEFLEYVAESLEPPSPFELLEPPTSGGFLRLGRPCCYIFPGGLGDAAFFAVNGFTVLVNGGSNPKSSFWKLVRHLDRVDAVLVTHPGADSLPGLNSLLRRKLAERSEVAAGGGSWDDRLRRLISPNLGVVFFNACEAASRLARGEDEAELALSLLAQLGITPLPLSRGPVPAKPTVLFEKMGVGRLDMYVLHPPSAGAERTLASVCALLVWHPAGPGEKVVRVLFPGCTPPACLLDGLVRLQHLRFLREPVVTPQDLEGPGRAESKESVGSRDSSKREGLLATHPRPGQERPGVARKEPARAEAPRKTEKEAKTPRELKKDPKPSVSRTQPREVRRAASSVPNLKKTNAQAAPKPRKAPSTSHSGFPPVANGPRSPPSLRCGEASPPSAACGSPASQLVATPSLELGPIPAGEEKALELPLAASSIPRPRTPSPESHRSPAEGSERLSLSPLRGGEAGPDASPTVTTPTVTTPSLPAEVGSPHSTEVDESLSVSFEQVLPPSAPTSEAGLSLPLRGPRARRSASPHDVDLCLVSPCEFEHRKAVPMAPAPASPGSSNDSSARSQERAGGLGAEETPPTSVSESLPTLSDSDPVPLAPGAADSDEDTEGFGVPRHDPLPDPLKVPPPLPDPSSICMVDPEMLPPKTARQTENVSRTRKPLARPNSRAAAPKATPVAAAKTKGLAGGDRASRPLSARSEPSEKGGRAPLSRKSSTPKTATRGPSGSASSRPGVSATPPKSPVYLDLAYLPSGSSAHLVDEEFFQRVRALCYVISGQDQRKEEGMRAVLDALLASKQHWDRDLQVTLIPTFDSVAMHTWYAETHARHQALGITVLGSNSMVSMQDDAFPACKVEF [MAP1S]”, the “solubility in G1/S (log2)” value with HeLa Kyoto [1] was 0.287. Besides, the melting temperature in the series on HeLa Kyoto [2] (cell cycle stage: G1/S) was 50.4 °C; in the series on HeLa Kyoto [2] (cell cycle stage: mitosis), 49.8 °C. Moreover, in the series with HeLa Kyoto [3], the “solubility change mitosis (log2)” value was -0.216. The results for the thermal stability score in the series with HeLa Kyoto [4] (setting [5]) and with HeLa Kyoto [4] (cell cycle stage: mitosis) were -0.227 and -0.265, respectively.
As for “MFTSTGSSGLYKAPLSKSLLLVPSALSLLLALLLPHCQKLFVYDLHAVKNDFQIWRLICGRIICLDLKDTFCSSLLIYNFRIFERRYGSRKFASFLLGSWVLSALFDFLLIEAMQYFFGITAASNLPSGFLAPVFALFVPFYCSIPRVQVAQILGPLSITNKTLIYILGLQLFTSGSYIWIVAISGLMSGLCYDSKMFQVHQVLCIPSWMAKFFSWTLEPIFSSSEPTSEARIGMGATLDIQRQQRMELLDRQLMFSQFAQGRRQRQQQGGMINWNRLFPPLRQRQNVNYQGGRQSEPAAPPLEVSEEQVARLMEMGFSRGDALEALRASNNDLNVATNFLLQH [UBAC2]”, in the series with HeLa Kyoto [1], the “solubility in G1/S (log2)” value is -0.173. Besides, the melting temperature is 50.4 °C in the series with HeLa Kyoto [2] (cell cycle stage: G1/S) and 51.2 °C in the series on HeLa Kyoto [2] (cell cycle stage: mitosis). The “solubility change mitosis (log2)” value with HeLa Kyoto [3] is -0.209. For the same sequence, the values for the thermal stability score in the series with HeLa Kyoto [4] (setting [5]) and with HeLa Kyoto [4] (cell cycle stage: mitosis) were 0.579 and 1.39, respectively.
For the sequence “MKLIILEHYSQASEWAAKYIRNRIIQFNPGPEKYFTLGLPTGSTPLGCYKKLIEYYKNGDLSFKYVKTFNMDEYVGLPRDHPESYHSFMWNNFFKHIDIHPENTHILDGNAVDLQAECDAFEEKIKAAGGIELFVGGIGPDGHIAFNEPGSSLVSRTRVKTLAMDTILANARFFDGELTKVPTMALTVGVGTVMDAREVMILITGAHKAFALYKAIEEGVNHMWTVSAFQQHPRTVFVCDEDATLELKVKTVKYFKGLMLVHNKLVDPLYSIKEKETEKSQSSKKPYSD [GNPDA1]”, the “solubility in G1/S (log2)” value in the series with HeLa Kyoto [1] is 0.183. The melting temperature with HeLa Kyoto [2] (cell cycle stage: G1/S) is 61.5 °C; with HeLa Kyoto [2] (cell cycle stage: mitosis), 62.9 °C. For the same sequence, the “solubility change mitosis (log2)” value with HeLa Kyoto [3] was -0.206. Further, the thermal stability score with HeLa Kyoto [4] (setting [5]) was -0.841; in the series with HeLa Kyoto [4] (cell cycle stage: mitosis) it was -0.7.
As for “MADTLPSEFDVIVIGTGLPESIIAAACSRSGRRVLHVDSRSYYGGNWASFSFSGLLSWLKEYQENSDIVSDSPVWQDQILENEEAIALSRKDKTIQHVEVFCYASQDLHEDVEEAGALQKNHALVTSANSTEAADSAFLPTEDESLSTMSCEMLTEQTPSSDPENALEVNGAEVTGEKENHCDDKTCVPSTSAEDMSENVPIAEDTTEQPKKNRITYSQIIKEGRRFNIDLVSKLLYSRGLLIDLLIKSNVSRYAEFKNITRILAFREGRVEQVPCSRADVFNSKQLTMVEKRMLMKFLTFCMEYEKYPDEYKGYEEITFYEYLKTQKLTPNLQYIVMHSIAMTSETASSTIDGLKATKNFLHCLGRYGNTPFLFPLYGQGELPQCFCRMCAVFGGIYCLRHSVQCLVVDKESRKCKAIIDQFGQRIISEHFLVEDSYFPENMCSRVQYRQISRAVLITDRSVLKTDSDQQISILTVPAEEPGTFAVRVIELCSSTMTCMKGTYLVHLTCTSSKTAREDLESVVQKLFVPYTEMEIENEQVEKPRILWALYFNMRDSSDISRSCYNDLPSNVYVCSGPDCGLGNDNAVKQAETLFQEICPNEDFCPPPPNPEDIILDGDSLQPEASESSAIPEANSETFKESTNLGNLEESSE [CHM]”, the “solubility in G1/S (log2)” value in the series on HeLa Kyoto [1] was -0.115. Moreover, the melting temperature with HeLa Kyoto [2] (cell cycle stage: G1/S) came to 52.9 °C; in the series on HeLa Kyoto [2] (cell cycle stage: mitosis), 53.1 °C. For the same sequence, the “solubility change mitosis (log2)” value in the series on HeLa Kyoto [3] was -0.191. Further, the thermal stability score with HeLa Kyoto [4] (setting [5]) is -0.484; in the series on HeLa Kyoto [4] (cell cycle stage: mitosis), -1.2.
In the case of “MASGTTTTAVKIGIIGGTGLDDPEILEGRTEKYVDTPFGKPSDALILGKIKNVDCVLLARHGRQHTIMPSKVNYQANIWALKEEGCTHVIVTTACGSLREEIQPGDIVIIDQFIDRTTMRPQSFYDGSHSCARGVCHIPMAEPFCPKTREVLIETAKKLGLRCHSKGTMVTIEGPRFSSRAESFMFRTWGADVINMTTVPEVVLAKEAGICYASIAMATDYDCWKEHEEAVSVDRVLKTLKENANKAKSLLLTTIPQIGSTEWSETLHNLKNMAQFSVLLPRH [MTAP]”, the “solubility in G1/S (log2)” value with HeLa Kyoto [1] was determined as 0.254. Besides, the melting temperature in the series with HeLa Kyoto [2] (cell cycle stage: G1/S) was determined as 60 °C; in the series on HeLa Kyoto [2] (cell cycle stage: mitosis), 60.5 °C. In the series on HeLa Kyoto [3], the “solubility change mitosis (log2)” value is -0.0344. The figures for the thermal stability score in the series on HeLa Kyoto [4] (setting [5]) and with HeLa Kyoto [4] (cell cycle stage: mitosis) were -1.8 and -2.68, respectively.
As for “MSVVGIDLGFLNCYIAVARSGGIETIANEYSDRCTPACISLGSRTRAIGNAAKSQIVTNVRNTIHGFKKLHGRSFDDPIVQTERIRLPYELQKMPNGSAGVKVRYLEEERPFAIEQVTGMLLAKLKETSENALKKPVADCVISIPSFFTDAERRSVMAAAQVAGLNCLRLMNETTAVALAYGIYKQDLPPLDEKPRNVVFIDMGHSAYQVLVCAFNKGKLKVLATTFDPYLGGRNFDEALVDYFCDEFKTKYKINVKENSRALLRLYQECEKLKKLMSANASDLPLNIECFMNDLDVSSKMNRAQFEQLCASLLARVEPPLKAVMEQANLQREDISSIEIVGGATRIPAVKEQITKFFLKDISTTLNADEAVARGCALQCAILSPAFKVREFSITDLVPYSITLRWKTSFEDGSGECEVFCKNHPAPFSKVITFHKKEPFELEAFYTNLHEVPYPDARIGSFTIQNVFPQSDGDSSKVKVKVRVNIHGIFSVASASVIEKQNLEGDHSDAPMETETSFKNENKDNMDKMQVDQEEGHQKCHAEHTPEEEIDHTGAKTKSAVSDKQDRLNQTLKKGKVKSIDLPIQSSLCRQLGQDLLNSYIENEGKMIMQDKLEKERNDAKNAVEEYVYDFRDRLGTVYEKFITPEDLSKLSAVLEDTENWLYEDGEDQPKQVYVDKLQELKKYGQPIQMKYMEHEERPKALNDLGKKIQLVMKVIEAYRNKDERYDHLDPTEMEKVEKCISDAMSWLNSKMNAQNKLSLTQDPVVKVSEIVAKSKELDNFCNPIIYKPKPKAEVPEDKPKANSEHNGPMDGQSGTETKSDSTKDSSQHTKSSGEMEVD [HSPA4L]”, the “solubility in G1/S (log2)” value with HeLa Kyoto [1] is 0.145. For the same sequence, the melting temperature in the series on HeLa Kyoto [2] (cell cycle stage: G1/S) came to 49.8 °C; in the series on HeLa Kyoto [2] (cell cycle stage: mitosis) it was 49.9 °C. Moreover, the “solubility change mitosis (log2)” value with HeLa Kyoto [3] was -0.0487. Further, the figures for the thermal stability score in the series on HeLa Kyoto [4] (setting [5]) and in the series on HeLa Kyoto [4] (cell cycle stage: mitosis) were 1.4 and 1.87, respectively.
In the case of “MSRQNLVALTVTTLLGVAVGGFVLWKGIQRRRRSKTSPVTQQPQQKVLGSRELPPPEDDQLHSSAPRSSWKERILKAKVVTVSQEAEWDQIEPLLRSELEDFPVLGIDCEWVNLEGKASPLSLLQMASPSGLCVLVRLPKLICGGKTLPRTLLDILADGTILKVGVGCSEDASKLLQDYGLVVRGCLDLRYLAMRQRNNLLCNGLSLKSLAETVLNFPLDKSLLLRCSNWDAETLTEDQVIYAARDAQISVALFLHLLGYPFSRNSPGEKNDDHSSWRKVLEKCQGVVDIPFRSKGMSRLGEEVNGEATESQQKPRNKKSKMDGMVPGNHQGRDPRKHKRKPLGVGYSARKSPLYDNCFLHAPDGQPLCTCDRRKAQWYLDKGIGELVSEEPFVVKLRFEPAGRPESPGDYYLMVKENLCVVCGKRDSYIRKNVIPHEYRKHFPIEMKDHNSHDVLLLCTSCHAISNYYDNHLKQQLAKEFQAPIGSEEGLRLLEDPERRQVRSGARALLNAESLPTQRKEELLQALREFYNTDVVTEEMLQEAASLETRISNENYVPHGLKVVQCHSQGGLRSLMQLESRWRQHFLDSMQPKHLPQQWSVDHNHQKLLRKFGEDLPIQLS [EXD2]”, the “solubility in G1/S (log2)” value with HeLa Kyoto [1] is 0.113. The melting temperature turned out to be 49.7 °C in the series on HeLa Kyoto [2] (cell cycle stage: G1/S) and 49.6 °C with HeLa Kyoto [2] (cell cycle stage: mitosis). Moreover, in the series with HeLa Kyoto [3], the “solubility change mitosis (log2)” value is -0.0547. For the same sequence, the thermal stability score with HeLa Kyoto [4] (setting [5]) is 0.38; in the series on HeLa Kyoto [4] (cell cycle stage: mitosis) it was 0.455.
Take “MAARRGALIVLEGVDRAGKSTQSRKLVEALCAAGHRAELLRFPERSTEIGKLLSSYLQKKSDVEDHSVHLLFSANRWEQVPLIKEKLSQGVTLVVDRYAFSGVAFTGAKENFSLDWCKQPDVGLPKPDLVLFLQLQLADAAKRGAFGHERYENGAFQERALRCFHQLMKDTTLNWKMVDASKSIEAVHEDIRVLSEDAIRTATEKPLGELWK [DTYMK]”: the “solubility in G1/S (log2)” value with HeLa Kyoto [1] is -0.0236. The melting temperature came out at 56.9 °C with HeLa Kyoto [2] (cell cycle stage: G1/S) and 54.4 °C in the series on HeLa Kyoto [2] (cell cycle stage: mitosis). The “solubility change mitosis (log2)” value with HeLa Kyoto [3] was determined as 0.00796. Besides, the figures for the thermal stability score in the series on HeLa Kyoto [4] (setting [5]) and in the series with HeLa Kyoto [4] (cell cycle stage: mitosis) were -8.56 and -6.57, respectively.
